Test results taken from US20100278838A1, “EPHA2 MONOCLONAL ANTIBODIES AND METHODS OF USE THEREOF” (MEDIMMUNE, LLC, priority 2002, published 2010).

B1: EA2: EphA2 agonistic monoclonal antibody; ATCC deposit no. PTA-4380; co-pending application Ser. No. 10/436,783; VL SEQ ID NO:33, VH SEQ ID NO:37 (antibody, listed as Homo Sapiens, V domains shown)
VH: DVKLVESGGGLVKPGGSLKLSCAASGFTFSSYTMSWVRQTPEKRLEWVATISSGGTYTYYPDSVKGRFTISRDNAKNTLYLQMSSLKSEDTAMYYCTREAIFTYWGQGTLVTVSA
VL: DIKMTQSPSSMYASLGERVTITCKASQDINNYLSWFQQKPGKSPKTLIYRANRLVDGVPSRFSGSGSGQDYSLTISSLEYEDMGIYYCLKYDEFPYTFGGGTKLEIK
B2: Eph099B-208.261: EphA2 monoclonal antibody; hybridoma ATCC PTA-4573; VL SEQ ID NO:1, VH SEQ ID NO:5 (antibody, listed as Homo sapiens, V domains shown)
VH: QVQLQQPGAELVKPGASVKLSCKASGYTFTSYWMHWVKQRPGQGLEWIGMIHPNSGSTNYNEKFKSKATLTVDKSSSTAYMRLSSLTSEDSAVYYCARGGNMVGGGYWGQGTTLTVSS
VL: QIVLTQSPALMSASPGEKVTMTCSASSSVSYMYWYQQKPRSSPKPWIYLTTNLASGVPARFSGSGSGTSYSLTISSMEAEDAATYYCQQWSSNPFTFGSGTKLEIR
B3: Eph099B-233.152: EphA2 monoclonal antibody; hybridoma ATCC PTA-5194; VL SEQ ID NO:17, VH SEQ ID NO:21 (antibody, listed as Homo sapiens, V domains shown)
VH: EVKLVESGGGLVQPGGSLSLSCAASGFTFTDYSMNWVRQPPGKALEWLGFIRNKANDYTTEYSASVKGRFTISRDNSQSILYLQMNALRAEDSATYYCVRYPRYHAMDSWGQGTSVTVSS
VL: DIVLTQSPATLSVTPGDSVNLSCRASQSISNNLHWYQQKSHESPRLLIKYVFQSISGIPSRFSGSGSGTDFTLSINSVETEDFGMYFCQQSNSWPLTFGAGTKLELK

What was measured:
[1] = target: T1, EphA2-Ephrin A1-Fc complex (Homo sapiens, UniProt P29317); assay: Binding of biotinylated protein to EphA2-Ephrin A1-Fc complex on microtiter plate; settings: FIG. 18A
T1 construct: consisting of the extracellular domain of EphA2 linked to human IgG1 constant region
T1 sequence (P29317 24-537 limits assumed): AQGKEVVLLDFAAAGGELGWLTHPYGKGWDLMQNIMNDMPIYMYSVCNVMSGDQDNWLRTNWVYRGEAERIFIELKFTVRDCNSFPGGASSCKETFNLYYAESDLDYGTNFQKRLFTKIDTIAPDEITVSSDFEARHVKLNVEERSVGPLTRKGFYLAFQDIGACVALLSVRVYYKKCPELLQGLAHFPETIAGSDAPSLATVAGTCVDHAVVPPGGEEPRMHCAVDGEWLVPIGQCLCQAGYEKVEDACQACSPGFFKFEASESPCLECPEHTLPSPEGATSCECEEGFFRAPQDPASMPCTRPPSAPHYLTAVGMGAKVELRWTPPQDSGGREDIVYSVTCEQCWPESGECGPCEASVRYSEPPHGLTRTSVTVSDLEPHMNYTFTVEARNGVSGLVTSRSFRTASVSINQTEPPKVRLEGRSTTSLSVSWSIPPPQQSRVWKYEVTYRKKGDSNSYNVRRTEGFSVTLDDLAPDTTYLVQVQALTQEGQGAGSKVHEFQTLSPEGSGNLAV
T1 sequence (P20827 19-182 partner limits assumed): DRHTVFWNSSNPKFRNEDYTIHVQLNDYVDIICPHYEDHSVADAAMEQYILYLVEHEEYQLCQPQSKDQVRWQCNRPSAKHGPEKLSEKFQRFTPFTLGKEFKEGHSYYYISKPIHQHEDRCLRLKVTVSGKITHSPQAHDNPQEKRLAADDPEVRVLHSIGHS
Description: FIGS. 18A-18B: EphA2 EA2 epitope is distinct from Eph099B-233.152 epitope and ligand binding site. (A) EphA2-Fc was incubated with and bound to immobilized Ephrin A1-Fc. Labeled Ephrin A1-Fc (black), EA2 (white) or Eph099B-233.152 (grey) was incubated with the EphA2-Ephrin A1-Fc complex and amount of binding was measured. (B) EphA2-Fc was incubated with and bound to immobilized Ephrin A1-Fc. Labeled EA2 was then incubated with the EphA2-Ephrin A1 complex. Unlabeled competitor was incubated with EphA2-Ephrin A1-EA2 complex in the indicated amount. Competitors were Ephrin A1-Fc (black), EA2 (white) or Eph099B-233.152 (grey).
A microtiter plate was coated with […] Ephrin A1-Fc overnight at 4° C. A fusion protein consisting of the extracellular domain of EphA2 linked to human IgG1 constant region (EphA2-Fc) was incubated with and bound to the immobilized Ephrin A1-Fc. Biotinylated Ephrin A1-Fc, EA2, or Eph099B-233.152 was incubated with the EphA2-Ephrin A1-Fc complex and amount of binding was measured.

[2] = system: malignant MDA-MB-231 tumor cells; assay: Inhibition of colony formation in soft agar; type: cell-based; settings: MDA-MB-231, single dose 5 μg/ml, 37° C.
Description: FIG. 5: EphA2 antibodies inhibit malignant tumor cell growth in soft agar. A single dose of 5 μg/ml of Eph099B-208.261 (black bar), EA2 (white bar) purified EphA2 antibodies or a negative control antibody, 1A7 (gray bar) were incubated with malignant MDA-MB-231 tumor cells for the indicated time at 37° C. in soft agar. Results are reported as colonies per high-powered field (HPF).
The ability of the antibodies of the invention to inhibit cancer cell formation in soft agar was assayed as described in Zelinski et al. (2001, Cancer Res. 61:2301-6). Briefly, cells were suspended in soft agar for 7 days at 37° C. in the presence of purified antibody or control solution (PBS). Antibodies were administered at the time of suspension in both bottom and top agar solutions. Colony formation was scored microscopically using an Olympus CK-3 inverted phase-contrast microscope outfitted with a 40× objective. Clusters containing at least three cells were scored as a positive.

[3] = system: A549 lung cancer cells implanted subcutaneously; assay: Tumor growth in vivo, A549 implanted subcutaneously; set-up: species or system athymic mice; settings: 6mg/kg intraperitoneally twice a week for 3 weeks; versus PBS or 1A7
Description: (§1) FIGS. 7A-7D: The EphA2 antibodies, EA2, Eph099B-208.261, and Eph099B-233.152, inhibit tumor cell growth in vivo. MDA-MB-231 breast cancer cells were implanted (A) orthotopically or (B) subcutaneously into athymic mice. (C) A549 lung cancer cells were implanted subcutaneously into athymic mice. After the tumors had grown to an average volume of 100 mm^3, mice were administered 6 mg/kg of the indicated antibody or negative control (PBS or 1A7 antibody) intraperitoneally twice a week for 3 weeks. Tumor growth was assessed and expressed as a ratio of the tumor volume divided by initial tumor volume (100 mm^3). (D) MDA-MB-231 breast cancer cells were implanted subcutaneously into athymic mice. After the tumors had grown to an average volume of 100 mm^3, mice were administered 6 mg/kg of the indicated antibody or negative control intraperitoneally twice a week for 3 weeks. Total tumor volume was determined after sacrifice. Negative control is black, EA2 is white, Eph099B-208.261 is dark grey, and Eph099B-233.152 is light grey.
(§2) 5×10^6MDA-MB-231 breast cancer cells were implanted orthotopically or subcutaneously and 5×10^6 A549 lung cancer cells were implanted subcutaneously into athymic mice. […] Tumor growth was assessed and expressed either as a ratio of the tumor volume divided by initial tumor volume (100 mm^3) or as total tumor volume. […]

[4] = system: MDA-MB-231 breast cancer cells implanted orthotopically; assay: Tumor growth in vivo, MDA-MB-231 implanted orthotopically; set-up: species or system athymic mice; settings: 6mg/kg intraperitoneally twice a week for 3 weeks; versus PBS or 1A7
Description: as §1, §2

Row | Molecule | Amount of binding to EphA2-Ephrin A1-Fc complex [1] | Colony growth in soft agar [2] | Growth of A549 cells implanted subcutaneously [3] | Growth of MDA-MB-231 cells implanted orthotopically [4]
1 | B1 | considerable levels | inhibited colony growth in soft agar | inhibited | inhibited
2 | B2 |  | inhibited colony growth in soft agar | inhibited | 
3 | B3 | considerable levels |  |  | 
